Laboratory results: patent publication US20050064514A1 (MacroGenics, published 2005)

What was measured:
[1] = target: T1, FcγRIIB-Fc fusion protein (soluble dimeric FcγRIIB) (human, UniProt P31994 43-217); assay: BIAcore ch4-4-20
T1 construct: extracellular domain; also called FcRIIB-Fc; FcR2B; not shown: hinge-CH2-CH3 domain of human IgG2
T1 sequence (looked up): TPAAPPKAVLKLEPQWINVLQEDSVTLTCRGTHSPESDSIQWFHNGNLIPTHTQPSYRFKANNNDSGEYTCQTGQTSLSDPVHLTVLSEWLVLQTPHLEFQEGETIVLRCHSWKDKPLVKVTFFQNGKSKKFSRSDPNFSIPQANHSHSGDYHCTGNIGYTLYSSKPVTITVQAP

[2] = target: T1, FcγRIIB-Fc fusion protein (soluble …); assay: BIAcore separate fit
[3] = target: T1, FcγRIIB-Fc fusion protein (soluble …); assay: BIAcore

B1: ch4-4-20 MgFc66 (A330V, G427M) (antibody)
chain 1: not shown
chain 2: DVVMTQTPLSLPVSLGDQASISCRSSQSLVHSNGNTYLRWYLQKPGQSPKVLIYKVSNRFSGVPDRFSGSGSGTDFTLKISRVEAEDLGVYFCSQSTHVPWTFGGGTKLEIKRTVAAPSVFIFPPSDEQLKSGTASVVCLLNNFYPREAKVQWKVDNALQSGNSQESVTEQDSKDSTYSLSSTLTLSKADYEKHKVYACEVTHQGLSSPVTKSFNRGEC
For B1, the “Koff WT/Mut” value [1] was 0.62.

B2: ch4-4-20 K288N, A330S, P396L (antibody)
chain: EPKSCDKTHTCPPCPAPELLGGPSVFLFPPKPKDTLMISRTPEVTCVVVDVSHEDPEVKFNWYVDGVEVHNANTKPREEQYNSTYRVVSVLTVLHQDWLNGKEYKCKVSNKALPSPIEKTISKAKGQPREPQVYTLPPSREEMTKNQVSLTCLVKGFYPSDIAVEWESNGQPENNYKTTPLVLDSDGSFFLYSKLTVDKSRWQQGNVFSCSVMHEALHNHYTQKSLSLSPGK
For B2, the koff [2] was 0.05 s⁻¹ and the koff [3] was 0.05 s⁻¹.

B3: ch4-4-20 E293V, Q295E, A327T (antibody)
chain: EPKSCDKTHTCPPCPAPELLGGPSVFLFPPKPKDTLMISRTPEVTCVVVDVSHEDPEVKFNWYVDGVEVHNAKTKPRVEEYNSTYRVVSVLTVLHQDWLNGKEYKCKVSNKTLPAPIEKTISKAKGQPREPQVYTLPPSREEMTKNQVSLTCLVKGFYPSDIAVEWESNGQPENNYKTTPPVLDSDGSFFLYSKLTVDKSRWQQGNVFSCSVMHEALHNHYTQKSLSLSPGK
B3 was tested, and the “Koff WT/Mut” value [1] was 1.3 and the koff [3] was 0.074 s⁻¹.

B4: ch4-4-20 Y319F, P352L, P396L (antibody)
chain: EPKSCDKTHTCPPCPAPELLGGPSVFLFPPKPKDTLMISRTPEVTCVVVDVSHEDPEVKFNWYVDGVEVHNAKTKPREEQYNSTYRVVSVLTVLHQDWLNGKEFKCKVSNKALPAPIEKTISKAKGQPREPQVYTLLPSREEMTKNQVSLTCLVKGFYPSDIAVEWESNGQPENNYKTTPLVLDSDGSFFLYSKLTVDKSRWQQGNVFSCSVMHEALHNHYTQKSLSLSPGK
With B4 the “Koff WT/Mut” value [1] was 2.29 and the koff [3] was 0.041 s⁻¹.
